Data: patent publication US20130143953A1 (TRUSTEES OF TUFTS COLLEGE, published 2013)

B1: human CD59, GPI-anchored membrane form expressed from the AdCAGCD59 vector (protein, UniProt P13987 26-102, looked up)
chain: LQCYNCPNPTADCKTAVNCSSDFDACLITKAGLQVYNKCWKFEHCNFNDVTTRLRENELTYYCCKKDLCNFNEQLEN
modifications: glycosyl phosphatidyl inositol (GPI) anchor at asparagine 77 of the mature protein; N-glycosylated
B2: membrane-independent (soluble) human CD59 lacking the C-terminal 26 amino acids, expressed from AdCAGsCD59 or AAVCAGsCD59 (other)
chain: B1 chain
modifications: N-glycosylated forms (14-18 kDa)

Experiments:
[1] = target: human membrane attack complex (C5b-9) formed from normal human serum on mouse cells (human) (UniProt P01031); test: cell-based or functional assay
[2] = target: human membrane attack complex (C5b-9) formed from normal human serum on mouse cells (human, UniProt P01031 752-1676; P13671 22-934; P10643 23-843; P07357 31-584; P07358 55-591; …); test: cell-based or functional assay

Binder | complement mediated cell lysis (PI uptake, FACS; hepa-1c1c7 cells, 1000 vp/cell AdCAGCD59, 1% NHS) [1] | fold reduction of complement mediated cell lysis (PI uptake, FACS; hepa-1c1c7 cells, 1000 vp/cell AdCAGCD59, 1% NHS) [1] | inhibition of cell lysis at 250 vp/cell AdCAGCD59 (hepa-1c1c7 cells, NHS) [1] | inhibition of cell lysis at 500 vp/cell AdCAGCD59 (hepa-1c1c7 cells, NHS) [1] | reduction in MAC immunofluorescence intensity on mouse corneal endothelium (ex vivo, 50% NHS, 20 minutes) [1] | reduction in MAC immunofluorescence on mouse eyecups, 7.5 minutes NHS [1] | reduction in MAC immunofluorescence on mouse eyecups, 15 minutes NHS [1] | reduction in mean MAC immunofluorescence intensity on mouse eyecup RPE at the area of GFP expression [1] | protection against cell lysis relative to AdCAGGFP-conditioned media with NHS (Hepa-1c1c7 cells) [2]
B1 | 12.3% | 8 fold | > 50% | > 70% | 86% | 68% | 56% | 55% | –
B2 | – | – | – | – | – | – | – | – | 34.1%
